Square brackets hold non-standard residues; d marks the D form. Peptide text beside a SMILES is read from it. dNMeA = CN[C@H](C)C(=O)O
Experiments:
[1] = Proton transport (collapse of pH gradient) in vesicles with entrapped 5(6)-carboxyfluorescein; assay type: biochemical; details: vesicles pH 6.5 inside, pH 5.5 outside; 25° C.; equal molar amounts of channel forming compounds
From the text: The proton efflux is expressed in terms of the fractional change in the fluorescence intensity of vesicle entrapped 5(6)-carboxyfluorescein as a function of time (sampling time was at 0.3 seconds interval). Equal molar amounts of channel forming compounds were used in each experiment to allow direct comparisons of channel-mediated proton transport activity. The amount of added channel forming compounds in each experiment ranged from of 2 to 20 nmoles corresponding to approximately 150 channels per liposome for the lowest concentrations to 1100 channels per liposome for the highest amount of added compounds.
Formation of transmembrane channels was also inferred from its highly efficient proton transport activity. Vesicles were prepared having pH 6.5 inside and pH 5.5 in the outside bulk solution. The collapse of the imposed pH gradient in these vesicles, upon formation of the putative transmembrane channel structure, was studied by monitoring the fluorescence intensity of an entrapped pH-sensitive dye. (V.E. Carmichael et al, in J.Am. Chem. Soc. (1989), vol. 111, pages 767-769). […] Unilamellar vesicles were prepared by the reverse-phase evaporation using DPPC, OPPC, cholestrol in the ratio of 1:1:2 in a solution containing 5(6)-carboxyfluorescein (20 mM in phosphate/saline buffer: 137 mM NaCl, 2.6 mM KCl, 6.4 mM Na2HPO4, 1.4 mM KH2PO4, pH 6.5) according to the method of F. Szoka et al. in Proc. Natl. Acad. Sci. USA (1978), vol. 75, pages 4194-4198. […] Vesicles formed in this way are approximately 150 nanometer in diameter as determined by electron microscopy. […] To the cuvett, through an injector port, […] of the channel forming compounds in DMSO was added with continuous fluorescence monitoring at 520 nm (excitation at 470 nm). The observed data were then normalized for comparison into the fractional change in fluorescence ((I0−It)/(I0−I∞)) (V. E. Carmichael et al, in J.Am. Chem. Soc. (1989), vol. 111, pages 767-769)). […]

[2] = pH dependent solubility of peptide subunit in aqueous media; assay type: physicochemical
From the text: FIG. 17 illustrates the hydrogen bonding of molecular tubes constructed with cyclic peptide 1.
The design, synthesis, and characterization of a molecular tube, i.e., a cyclic peptide tube or “organic nanotube,” is described. A rationally designed 24-membered ring peptide structure can be constructed and shown to undergo a proton-triggered self-assembly to produce tubular structures hundreds of nanometers long, with internal van der Waals diameter of 7 to 8 Å. Formation of tubular structures is established by Electron Microscopy (EM), electron diffraction studies, and Fourier Transformed Infrared Spectroscopy (FT-IR). A three-dimensional model of the molecular tube consistent with the experimental observations is also presented. As opposed to the recently identified closed concentric graphite tubes, cyclic peptide tubes, by virtue of the cyclic nature of their components, are open ended structures and have uniform shape and internal diameter, e.g., Tsang, S. C. et al. (1993), Nature 362, 520-522 and Ajayan, P. M. et al. (1993), Nature 362, 522-525 (1993). The proton-triggered self-assembly process described herein is a highly convergent approach in which numerous ring-shaped peptide subunits interact through an extensive network of hydrogen bonds to form molecular tube structures. Example I features an eight-residue cyclic peptide with the following sequence: cyclo[-(D-Ala-Glu-D-Ala-Gln)2-]. (Sequence No.: 1) In designing the subunit, it is shown that cyclic peptides with an even number of alternating D- and L-amino acids can adopt or sample a low energy ring-shaped flat conformation in which all backbone amide functionalities lie approximately perpendicular to the plane of the structure. In this conformation, subunits can stack in an anti-parallel fashion and participate in backbone-backbone intermolecular hydrogen bonding to furnish a contiguous β-sheet structure. Moreover, because of the alternating D- and L-amino acid sequence, peptide side chains must \necessarily lie on the exterior of the ensemble thereby creating the desired hollow tubular core structure. […]

[3] = Incorporation of peptide subunit into lipid bilayers of large unilamellar vesicles (absorption and fluorescence spectroscopy); assay type: physicochemical; details: aqueous liposomal suspensions
From the text: Incorporation of the peptide subunit into lipid bilayers using large unilamellar vesicles has been established by absorption and fluorescence spectroscopy. Formation of the hydrogen-bonded transmembrane channel structure in phosphatidylcholin liposomes has been supported by FT-IR spectroscopy (FIG. 24). The observed amide-I band at 1624 cm^−1 is not only similar to the carbonyl stretching frequencies found in other nanotube structures disclosed herein, but is also consistent with the infrared spectrum of gramicidin A in similar lipid bilayers. (E. Nabedryk et al in Biophys. J. (1982), vol. 38, pages 243-249. Furthermore, the observed N-H stretching frequency at 3272 cm^−1 strongly supports the formation of a tight network of hydrogen bonds with an average intersubunit distance of 4.7 Å.
The second control peptide cyclo[-(^MeN-D-Ala-Phe)4-] which has the desirable hydrophobic surface characteristics but lacks the propensity for participating in extended hydrogen bonding network, was also designed and tested for ion transport activity. The peptide design incorporates a novel N-methylation strategy on one face of the ring structure which predisposes the subunit toward a dimeric cylindrical structure (Ghadiri, M. R., Kobayashi, K., Granja, J. R., Chadha, R., and McRee, D. E. manuscript in preparation). Such a dimeric cylindrical ensemble is approximately 10 Å thick and can not span the lipid bilayer.
The ten-residue peptide subunit employed in the present study, cyclo[-Gln-(D-Leu-Trp)4-D-Leu-], is made up of largely tryptophan and leucine residues to favor its partitioning into and self-assembly in lipid bilayers. It was synthesized on solid support^5 and characterized by ^1H NMR spectroscopy and mass spectrometry. […] This has been supported by absorption and fluorescence spectrophotometry and gel permeation studies. Formation of a hydrogen bonded transmembrane channel structure in phosphatidylcholin liposomes has been established by FT-IR spectroscopy^6. […]

[4] = Dimerization (self-assembly) of N-methylated cyclic peptide in nonpolar solvents, 1H NMR / van't Hoff; assay type: physicochemical
From the text: Variable temperature NMR experiments in DMSO indicate cis-trans conformational activation barriers on the order of 16 to 17 kcal.mol^−1. However, in nonpolar solvents such as carbon tetrachloride (CCl4) or deuterochloroform (CDCl3) the peptide exists in an all trans flat-ring-shaped backbone conformation which is in dynamic equilibrium with the expected dimeric cylindrical ensemble. […] The preponderance of a flat ring-shaped backbone conformation is also indicated by the observed 7.5 Hz JNH-CaH coupling constant. Intermolecular hydrogen bonding interactions producing the stacked dimeric ensemble are signified by the expected downfield shift of the phenylalanine N—H backbone resonance from 6.98 to 8.73 ppm (JNH-CaH=8.5 Hz) and are unequivocally established by the observed exchange and NOE cross peaks in its ROESY spectrum.
Formation of a tight hydrogen bonded ensemble with an average intersubunit N—O distance of 2.95 Å is also evidenced by the appearance of an N—H stretching band in the infrared spectrum at 3309 cm^−1.
[…] […] The Ka(CCl4) reported was performed in a mixture of 84% CCl4 and 16% CDCl3 for solubility reasons.
Variable temperature studies (van't Hoff plots) establish the following thermodynamic parameters for the dimerization process in chloroform: ΔCp=−203.1 cal.K^−1.mol^−1, ΔH^0298=−11.0 kcal.mol^−1, and ΔS^0298=−23.7 e.u. which clearly supports the expected enthalpic contribution of intermolecular hydrogen bonding interactions (0.5 to 0.7 kcal.mol^−1 for each hydrogen bonding interaction) as the major driving force in the self-assembly process.
The above experiments indicate that the peptide subunit adopts a flat ring-shaped solution conformation which is energetically favored toward ring stacking and intermolecular hydrogen bonding interactions by 4.0 to 5.6 kcal.mol^−1, depending on the solvent employed. It follows then that an additive gain in free energy of stabilization is to be expected as the number of ring-stacking interactions are increased. This is particularly relevant to the self-assembled nanotubes and to the transmembrane ion channel structures that can be produced.

solubility in aqueous media ([2]; acidic / low pH) | solubility in aqueous media ([2]; acidic / low pH, listed as cyclo[-(D-Ala-Glu-D-Ala-Gln)2-]) | solubility in aqueous media ([2]; high (alkaline) pH) | Compound | apparent ion (proton) transport activity [1] | partitioning / incorporation into lipid bilayers [3] | association constant Ka(CCl4) of dimerization ([4]; 293 K, mixture of 84% CCl4 and 16% CDCl3, lower limit (included water)) [M⁻¹] | ΔCp of dimerization ([4]; chloroform, van't Hoff plots) [cal.K^−1.mol^−1] | ΔH^0298 of dimerization ([4]; chloroform, van't Hoff plots) [kcal/mol] | ΔS^0298 of dimerization ([4]; chloroform, van't Hoff plots) [e.u.] | association constant Ka(CDCl3) of dimerization ([4]; water rigorously excluded (4 Å molecular sieves)) [M⁻¹]
 |  |  | cyclo[-(Gln-D-Leu)4-] (cyclo(Q[dL]Q[dL]Q[dL]Q[dL]); SMILES CC(C)C[C@H]1NC(=O)[C@H](CCC(N)=O)NC(=O)[C@@H](CC(C)C)NC(=O)[C@H](CCC(N)=O)NC(=O)[C@@H](CC(C)C)NC(=O)[C@H](CCC(N)=O)NC(=O)[C@@H](CC(C)C)NC(=O)[C@H](CCC(N)=O)NC1=O) [cyclo[-(Gln-D-Leu)4], control peptide lacking surface characteristics for partitioning into lipid bilayers] | does not display any ion transport activity |  |  |  |  |  | 
lower water solubility | lower solubility | high water solubility | C[C@H]1NC(=O)[C@H](CCC(N)=O)NC(=O)[C@@H](C)NC(=O)[C@H](CCC(=O)O)NC(=O)[C@@H](C)NC(=O)[C@H](CCC(N)=O)NC(=O)[C@@H](C)NC(=O)[C@H](CCC(=O)O)NC1=O [cyclic peptide 1, cyclo[-(Gln-D-Ala-Glu-D-Ala)2-]] (cyclo(Q[dA]E[dA]Q[dA]E[dA])) |  |  |  |  |  |  | 
 |  |  | cyclo[-(L-Phe-D-^Me NAla)4-] (cyclo(F[dNMeA]F[dNMeA]F[dNMeA]F[dNMeA]); SMILES C[C@@H]1C(=O)N[C@@H](Cc2ccccc2)C(=O)N(C)[C@H](C)C(=O)N[C@@H](Cc2ccccc2)C(=O)N(C)[C@H](C)C(=O)N[C@@H](Cc2ccccc2)C(=O)N(C)[C@H](C)C(=O)N[C@@H](Cc2ccccc2)C(=O)N1C) [N-methylated cap subunit / second control peptide, forms dimeric cylindrical structure] | does not promote proton transport activity | partition effectively | 14000 | −203.1 | -11.0 | −23.7 | 2540

— patent US6613875B1, “Cyclic peptide tube” (The Scripps Research Institute, priority 1993, dated 2003)
